Test results: patent publication US11504441B2, “Radiolabeled compounds targeting the prostate-specific membrane antigen” (PROVINCIAL HEALTH SERVICES AUTHORITY, priority 2019, dated 2022)

Legend:
[1] = tested on: PSMA-expressing LNCaP cancer xenografts; conditions: mouse, in vivo
in vivo = conditions: male, NODSCID 1L2RγKO, mouse, iv, total radioactivity; for excreta dose per gram or mL at 1 h: Urine uptake

Compound	Blood: Salivary ratio [1]	Tumor: Blood ratio [1]	Tumor: Kidney ratio [1]	Tumor: Muscle ratio [1]	Tumor: Salivary ratio [1]	tissue uptake at 1 h (in vivo; Adrenal glands uptake) [%ID/g]	tissue uptake at 1 h (in vivo; Blood uptake) [%ID/g]	tissue uptake at 1 h (in vivo; Bone uptake) [%ID/g]	tissue uptake at 1 h (in vivo; Brain uptake) [%ID/g]	tissue uptake at 1 h (in vivo; Fat uptake) [%ID/g]	tissue uptake at 1 h (in vivo; Heart uptake) [%ID/g]	tissue uptake at 1 h (in vivo; Intestine uptake) [%ID/g]	tissue uptake at 1 h (in vivo; Kidneys uptake) [%ID/g]	tissue uptake at 1 h (in vivo; Lacrimal uptake) [%ID/g]	tissue uptake at 1 h (in vivo; Liver uptake) [%ID/g]	tissue uptake at 1 h (in vivo; Lungs uptake) [%ID/g]	tissue uptake at 1 h (in vivo; Muscle uptake) [%ID/g]	tissue uptake at 1 h (in vivo; Pancreas uptake) [%ID/g]	tissue uptake at 1 h (in vivo; Salivary uptake) [%ID/g]	tissue uptake at 1 h (in vivo; Seminal uptake) [%ID/g]	other results
O=C(O)CN1CCN(CC(=O)O)CCN(CC(=O)NC[C@H]2CC[C@H](C(=O)N[C@@H](Cc3c4ccccc4cc4ccccc34)C(=O)NCCCC[C@H](NC(=O)N[C@@H](C[C@@H](F)C(=O)O)C(=O)O)C(=O)O)CC2)CCN(CC(=O)O)CC1 [68Ga-HTK04033, metal not drawn]	4.38 ± 0.57	31.7 ± 5.00	5.64 ± 1.37	221 ± 53.4	138 ± 21.1	0.16 ± 0.03	0.59 ± 0.12	0.08 ± 0.01	0.02	0.1 ± 0.03	0.18 ± 0.06	0.2 ± 0.04	3.31 ± 0.34	0.04 ± 0.03	0.29 ± 0.09	0.5 ± 0.05	0.09 ± 0.04	0.15 ± 0.08	0.13 ± 0.02	0.1 ± 0.04	tissue uptake at 1 h (in vivo; Spleen uptake): 0.19 ± 0.03 %ID/g; tissue uptake at 1 h (in vivo; Stomach uptake): 0.07 ± 0.03 %ID/g; tissue uptake at 1 h (in vivo; Tail uptake): 0.66 ± 0.5 %ID/g; tissue uptake at 1 h (in vivo; Testes uptake): 0.17 ± 0.05 %ID/g; tissue uptake at 1 h (in vivo; Thyroid uptake): 0.18 ± 0.03 %ID/g; tissue uptake at 1 h (in vivo; Tumor uptake): 18.5 ± 4.05 %ID/g; excreta dose per gram or mL at 1 h (in vivo): 440 ± 211 %ID/g
O=C(O)CCC[C@H](NC(=O)N[C@@H](CCCCNC(=O)[C@H](Cc1c2ccccc2cc2ccccc12)NC(=O)Cc1ccc(CNC(=O)CN2CCN(CC(=O)O)CCN(CC(=O)O)CCN(CC(=O)O)CC2)cc1)C(=O)O)C(=O)O [68Ga-HTK04036, metal not drawn]	3.68 ± 0.41	21.0 ± 8.58	3.02 ± 1.44	139 ± 62.4	75.1 ± 28.2	0.3 ± 0.16	0.69 ± 0.35	0.1 ± 0.03	0.02 ± 0.01	0.09 ± 0.05	0.22 ± 0.12	0.41 ± 0.23	5.82 ± 5	0.06 ± 0.03	0.48 ± 0.67	0.55 ± 0.26	0.11 ± 0.06	0.13 ± 0.07	0.18 ± 0.08	2.08 ± 3.09	tissue uptake at 1 h (in vivo; Spleen uptake): 0.27 ± 0.13 %ID/g; tissue uptake at 1 h (in vivo; Stomach uptake): 0.12 ± 0.11 %ID/g; tissue uptake at 1 h (in vivo; Tail uptake): 0.42 ± 0.18 %ID/g; tissue uptake at 1 h (in vivo; Testes uptake): 0.25 ± 0.14 %ID/g; tissue uptake at 1 h (in vivo; Thyroid uptake): 0.22 ± 0.12 %ID/g; tissue uptake at 1 h (in vivo; Tumor uptake): 12.1 ± 2.15 %ID/g; excreta dose per gram or mL at 1 h (in vivo): 422 ± 163 %ID/g
O=C(O)CCC[C@H](NC(=O)N[C@@H](CCCCNC(=O)[C@H](Cc1c2ccccc2cc2ccccc12)NC(=O)Cc1cccc(CNC(=O)CN2CCN(CC(=O)O)CCN(CC(=O)O)CCN(CC(=O)O)CC2)c1)C(=O)O)C(=O)O [68Ga-HTK04037, metal not drawn]	3.55 ± 0.46	26.3 ± 10.5	3.02 ± 1.22	165 ± 52.9	92.2 ± 34.5	0.19 ± 0.03	0.51 ± 0.12	0.07 ± 0.01	0.02	0.06 ± 0.01	0.15 ± 0.03	0.28 ± 0.03	4.47 ± 0.9	0.07 ± 0.04	0.2 ± 0.03	0.46 ± 0.09	0.08 ± 0.03	0.11 ± 0.01	0.14 ± 0.03	8.45 ± 10	tissue uptake at 1 h (in vivo; Spleen uptake): 0.24 ± 0.05 %ID/g; tissue uptake at 1 h (in vivo; Stomach uptake): 0.12 ± 0.05 %ID/g; tissue uptake at 1 h (in vivo; Tail uptake): 0.41 ± 0.16 %ID/g; tissue uptake at 1 h (in vivo; Testes uptake): 0.18 ± 0.04 %ID/g; tissue uptake at 1 h (in vivo; Thyroid uptake): 0.16 ± 0.03 %ID/g; tissue uptake at 1 h (in vivo; Tumor uptake): 13.1 ± 4.69 %ID/g; excreta dose per gram or mL at 1 h (in vivo): 396 ± 114 %ID/g
O=C(O)CN1CCN(CC(=O)O)CCN(CC(=O)NC[C@H]2CC[C@H](C(=O)N[C@@H](Cc3c4ccccc4cc4ccccc34)C(=O)NCCCC[C@H](NC(=O)N[C@@H](C[C@H](F)C(=O)O)C(=O)O)C(=O)O)CC2)CCN(CC(=O)O)CC1 [68Ga-HTK04040, metal not drawn]	0.73 ± 0.06	20.4 ± 6.02	0.26 ± 0.08	43.2 ± 24.9	14.9 ± 4.40	2.68 ± 0.7	0.94 ± 0.12	0.18 ± 0.03	0.25 ± 0.43	0.6 ± 0.3	0.88 ± 0.08	0.53 ± 0.04	76 ± 22.6	0.06 ± 0.02	0.94 ± 0.11	2.01 ± 0.21	0.64 ± 0.5	0.61 ± 0.08	1.29 ± 0.24	0.51 ± 0.12	tissue uptake at 1 h (in vivo; Spleen uptake): 2.58 ± 0.8 %ID/g; tissue uptake at 1 h (in vivo; Stomach uptake): 0.23 ± 0.08 %ID/g; tissue uptake at 1 h (in vivo; Tail uptake): 0.85 ± 0.54 %ID/g; tissue uptake at 1 h (in vivo; Testes uptake): 0.74 ± 0.04 %ID/g; tissue uptake at 1 h (in vivo; Thyroid uptake): 1.14 ± 0.14 %ID/g; tissue uptake at 1 h (in vivo; Tumor uptake): 18.8 ± 5.06 %ID/g; excreta dose per gram or mL at 1 h (in vivo): 325 ± 66.8 %ID/g
